Consider two molecules from patent publication US20190256846A1 (AGENCY FOR SCIENCE TECHNOLOGY AND RESEARCH, published 2019).

Assay [1] addresses ErbB4 on MCF-7 cells (endogenous) (UniProt Q15303). In words: cell-based or functional assay.
The target in assay [2] is T1, ErbB4 mutant lacking the C-terminal PDZ binding motif (ErbB4 APBM) (UniProt Q15303 26-1308, limits assumed).
T1 construct: The mutation is a triple alanine substitution of the last three residues, not a deletion; Present in HEK293 cell lysate; also called mutant with a disrupted PBM
T1 sequence (Q15303 other isoform, or with tags, fused parts or gaps mutant limits assumed): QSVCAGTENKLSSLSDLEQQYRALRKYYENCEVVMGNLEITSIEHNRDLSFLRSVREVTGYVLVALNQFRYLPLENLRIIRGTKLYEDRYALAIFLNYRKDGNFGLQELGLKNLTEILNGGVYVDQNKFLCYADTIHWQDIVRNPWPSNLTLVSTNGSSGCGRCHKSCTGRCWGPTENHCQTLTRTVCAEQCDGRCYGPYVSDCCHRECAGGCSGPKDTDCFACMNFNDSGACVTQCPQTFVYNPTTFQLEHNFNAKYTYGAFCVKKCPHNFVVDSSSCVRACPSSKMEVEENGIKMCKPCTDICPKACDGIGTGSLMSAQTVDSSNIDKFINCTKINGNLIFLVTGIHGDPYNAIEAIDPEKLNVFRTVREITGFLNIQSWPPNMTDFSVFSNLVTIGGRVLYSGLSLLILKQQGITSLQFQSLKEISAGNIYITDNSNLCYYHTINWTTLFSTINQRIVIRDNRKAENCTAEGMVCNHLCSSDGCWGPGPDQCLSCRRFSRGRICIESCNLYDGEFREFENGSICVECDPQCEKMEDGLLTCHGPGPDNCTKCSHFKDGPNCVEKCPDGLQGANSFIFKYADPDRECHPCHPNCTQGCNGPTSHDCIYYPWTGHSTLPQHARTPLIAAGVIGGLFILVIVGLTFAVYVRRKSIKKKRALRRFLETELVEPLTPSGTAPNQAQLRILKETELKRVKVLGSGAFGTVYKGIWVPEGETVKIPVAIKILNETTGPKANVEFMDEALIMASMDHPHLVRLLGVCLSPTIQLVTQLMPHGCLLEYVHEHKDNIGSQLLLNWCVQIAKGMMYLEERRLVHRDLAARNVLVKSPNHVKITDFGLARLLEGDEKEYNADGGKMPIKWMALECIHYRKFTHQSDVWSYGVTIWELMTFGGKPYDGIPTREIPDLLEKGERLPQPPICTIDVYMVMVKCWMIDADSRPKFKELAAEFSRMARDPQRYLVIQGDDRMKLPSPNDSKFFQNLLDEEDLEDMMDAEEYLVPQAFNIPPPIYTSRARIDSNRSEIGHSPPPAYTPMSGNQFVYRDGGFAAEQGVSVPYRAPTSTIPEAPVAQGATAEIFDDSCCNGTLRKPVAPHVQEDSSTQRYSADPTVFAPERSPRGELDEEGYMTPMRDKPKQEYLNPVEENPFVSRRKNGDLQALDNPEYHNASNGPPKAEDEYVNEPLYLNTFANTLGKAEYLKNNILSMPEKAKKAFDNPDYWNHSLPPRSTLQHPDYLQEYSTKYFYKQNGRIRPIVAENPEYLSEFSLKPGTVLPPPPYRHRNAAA
In words: GST pull-down from lysates of overexpressing cells, Western blot with anti-ErbB4. As to the method:
ErbB4 and mutant was transfected into HEK293 cells using JetPrimePolyPlus transfection kit (PolyPlus Transfections) according to manufacturer's instructions. […] GST and GST ZO-1PDZ1-3 domain fusion proteins were generated, purified, and bound to Glutathione Sepharose-4B (GE Healthcare Life Sciences) using standard protocols. Bound proteins were quantified by SDS-PAGE by using known amounts of BSA as standards. 18 μl of GST beads were incubated with 1 μg of GST fusion proteins. Unbound proteins were removed by washing with ice cold PBS. 300 μg of the transfected cells were then added and incubated at 4° C. for 2 hr followed by washing 4 times with ice cold lysis buffer. The bound fractions were eluted with 4×SDS-PAGE sample buffer, separated by SDS PAGE, immunoblotted onto PVDF membranes and probed with Rabbit anti-ErbB4 antibodies.
In general terms: A western blot detects proteins with antibodies after separation by electrophoresis.

Chain of ErbB4 on MCF-7 cells (endogenous) (Q15303 26-1308 limits assumed): as the sequence (Q15303 other isoform, or with tags, fused parts or gaps mutant limits assumed) above, with A1281T, A1282V, A1283V counted along it

Regarding “human NRG-1 (Cell Signalling Technology, Cat. #5218) (from UniProt Q02297 177-241) (ligand)”, in assay [1], the Erk activation (Erk phosphorylation, Western blot) in Tjp1 shRNA MCF-7 cells, 15 min stimulation stood at 2.5 ng/mL and the Erk activation (Erk phosphorylation, Western blot) in control shRNA MCF-7 cells, 15 min stimulation lay in the range of 50 to 100 ng/mL.

B1: GST fusion protein carrying the three PDZ domains of Tjp1 (GST-Tjp1 PDZ1-3) (other, human, UniProt Q07157 1-503, looked up)
chain: MSARAAAAKSTAMEETAIWEQHTVTLHRAPGFGFGIAISGGRDNPHFQSGETSIVISDVLKGGPAEGQLQENDRVAMVNGVSMDNVEHAFAVQQLRKSGKNAKITIRRKKKVQIPVSRPDPEPVSDNEEDSYDEEIHDPRSGRSGVVNRRSEKIWPRDRSASRERSLSPRSDRRSVASSQPAKPTKVTLVKSRKNEEYGLRLASHIFVKEISQDSLAARDGNIQEGDVVLKINGTVTENMSLTDAKTLIERSKGKLKMVVQRDERATLLNVPDLSDSIHSANASERDDISEIQSLASDHSGRSHDRPPRRSRSRSPDQRSEPSDHSRHSPQQPSNGSLRSRDEERISKPGAVSTPVKHADDHTPKTVEEVTVERNEKQTPSLPEPKPVYAQVGQPDVDLPVSPSDGVLPNSTHEDGILRPSMKLVKFRKGDSVGLRLAGGNDVGIFVAGVLEDSPAAKEGLEEGDQILRVNNVDFTNIIREEAVLFLLDLPKGEEVTILAQKK
notes: domain: PDZ 1-3 domains; also called GST ZO-1PDZ1-3 domain fusion protein; ZO-1 (Tjp1) PDZ domains; not shown: glutathione S-transferase (GST) tag encoded by the pGEX 4T-1 vector
Take B1: in assay [2], the binding result is given as “no binding”.
